In patent publication US12031981B2, “Method for electronic detection and quantification of antibodies” (Arizona Board of Regents on behalf of Arizona State …, priority 2018, dated 2024):

Molecular target: RGD peptide
Assay: Single molecule conductance of integrin binding RGD peptide on electrodes
Conditions: one ligand binding site

Chain of RGD peptide (P06756 31-889 limits assumed): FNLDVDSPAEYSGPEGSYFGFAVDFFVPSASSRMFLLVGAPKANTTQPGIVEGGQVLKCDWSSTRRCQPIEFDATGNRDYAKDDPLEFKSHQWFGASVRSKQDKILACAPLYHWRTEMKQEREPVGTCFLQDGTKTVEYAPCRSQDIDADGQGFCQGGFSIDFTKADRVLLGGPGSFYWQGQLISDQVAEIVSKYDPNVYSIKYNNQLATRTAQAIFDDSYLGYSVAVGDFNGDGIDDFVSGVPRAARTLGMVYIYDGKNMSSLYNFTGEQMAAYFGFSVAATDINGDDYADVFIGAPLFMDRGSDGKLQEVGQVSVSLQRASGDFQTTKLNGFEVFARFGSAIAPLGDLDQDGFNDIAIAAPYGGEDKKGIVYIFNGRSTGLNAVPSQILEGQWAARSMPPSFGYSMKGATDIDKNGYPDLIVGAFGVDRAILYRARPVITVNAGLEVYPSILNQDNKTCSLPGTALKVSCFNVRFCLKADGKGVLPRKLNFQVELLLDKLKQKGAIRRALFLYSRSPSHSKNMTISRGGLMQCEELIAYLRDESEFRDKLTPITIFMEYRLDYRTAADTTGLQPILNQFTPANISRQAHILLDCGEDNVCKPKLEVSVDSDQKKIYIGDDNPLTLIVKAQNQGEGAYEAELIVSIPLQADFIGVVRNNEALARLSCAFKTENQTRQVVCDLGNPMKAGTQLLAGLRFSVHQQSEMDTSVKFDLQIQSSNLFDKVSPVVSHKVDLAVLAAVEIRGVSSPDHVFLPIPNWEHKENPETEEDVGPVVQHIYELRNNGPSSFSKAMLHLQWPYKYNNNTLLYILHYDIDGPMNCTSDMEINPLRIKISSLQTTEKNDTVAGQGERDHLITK
Chain of RGD peptide (P06756 891-1048 partner limits assumed): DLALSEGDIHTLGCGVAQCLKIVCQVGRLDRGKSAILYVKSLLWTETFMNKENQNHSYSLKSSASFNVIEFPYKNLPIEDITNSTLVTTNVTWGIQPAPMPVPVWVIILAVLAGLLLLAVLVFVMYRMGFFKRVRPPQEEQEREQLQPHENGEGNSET
Chain of RGD peptide (P05106 27-788, further chain): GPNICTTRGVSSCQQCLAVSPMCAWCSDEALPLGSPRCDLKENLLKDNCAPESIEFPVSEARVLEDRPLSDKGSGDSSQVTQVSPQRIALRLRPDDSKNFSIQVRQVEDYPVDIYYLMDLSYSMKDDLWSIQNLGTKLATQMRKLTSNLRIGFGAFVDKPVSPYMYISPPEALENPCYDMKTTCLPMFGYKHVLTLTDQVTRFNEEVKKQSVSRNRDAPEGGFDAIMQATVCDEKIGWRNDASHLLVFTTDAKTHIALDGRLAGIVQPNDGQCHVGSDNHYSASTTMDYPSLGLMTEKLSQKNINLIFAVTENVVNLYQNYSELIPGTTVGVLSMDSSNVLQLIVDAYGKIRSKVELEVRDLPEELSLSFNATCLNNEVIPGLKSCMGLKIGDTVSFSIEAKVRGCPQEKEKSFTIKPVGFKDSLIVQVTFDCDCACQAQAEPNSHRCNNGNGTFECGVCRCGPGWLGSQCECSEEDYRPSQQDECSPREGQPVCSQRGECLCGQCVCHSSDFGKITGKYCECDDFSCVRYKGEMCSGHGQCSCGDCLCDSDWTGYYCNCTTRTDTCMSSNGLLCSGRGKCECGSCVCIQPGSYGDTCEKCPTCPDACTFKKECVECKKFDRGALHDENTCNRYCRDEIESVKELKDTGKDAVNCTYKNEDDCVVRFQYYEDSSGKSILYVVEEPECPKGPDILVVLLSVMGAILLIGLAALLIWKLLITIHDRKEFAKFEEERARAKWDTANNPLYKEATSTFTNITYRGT

For “Integrin: αvβ3 integrin binding RGD peptide; only one ligand binding site”, which “conductance G, single peak of distribution” value is on record?
The value was 0.3 nS.
